This is an account of results in patent publication US20220153854A1 (Ablynx, published 2022).

The EC50 is the concentration needed to bring the measured effect to its halfway point. The low end stands for greater potency, the high end for weaker potency. As usually defined, the Kd is the equilibrium constant for the complex coming apart. Read a high Kd as lower affinity.

The target of assay [1] is T1, membrane bound cyno OX40L on CHO-KI cells (cynomolgus monkey, UniProt G7NVH7 1-183).
T1 construct: whole, on cells; also called CHO-KI cells expressing cyno OX40L
T1 sequence: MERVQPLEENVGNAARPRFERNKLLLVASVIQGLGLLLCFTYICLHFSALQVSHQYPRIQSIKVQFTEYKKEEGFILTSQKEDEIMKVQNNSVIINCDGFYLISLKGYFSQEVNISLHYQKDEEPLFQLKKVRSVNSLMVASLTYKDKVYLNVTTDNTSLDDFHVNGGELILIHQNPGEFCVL
The experiment in a line: flow cytometry on fixed CHO-KI cells expressing cyno OX40L, 48 h incubation. How it is done: Briefly, cells were fixed with 4% paraformaldehyde and 0.1% Glutaraldehyde in PBS, seeded at a density of 1×10⁴ cells/well and incubated with a dilution series of ISVD F027100187 or reference compound anti-hOX40L mAb, named Comparator 3, starting from 100 nM […] 0.5 μM, for 48 hours at room temperature. Comparator 3 is a standard conventional monoclonal antibody directed against human OX40L, which is used as a reference throughout the Examples 1 to 12 described herein. Cells were washed 3 times and subsequently incubated with an anti-VHH mAb (ABH00119) for 30 min at 4° C., washed again, and incubated for 30 min at 4° C. with a goat anti-mouse PE or FITC labeled antibody. Samples were washed and resuspended in FACS Buffer (D-PBS with 10% FBS and 0.05% sodium azide supplemented with 5 nM TOPRO3). Cell suspensions were then analyzed on an iQuescreener. EC50 values were calculated using GraphPad Prism.

In assay [2] the target is T2, rhesus IL-13 (rhesus monkey, UniProt Q864V6 19-132, limits assumed).
T2 construct: also called rhesus monkey IL-13
The experiment in a line: Gyrolab in-solution affinity, 48 h incubation; 95% CI 6.3-49.5 pM. How it is done: Under receptor-controlled measurements a serial dilution of OX40L (ranging from 1.3 μM-0.031 μM), IL-13 (ranging from 0.1 μM-0.25 fM), or serum albumin (ranging from 100 μM-3.2 μM) and a fixed amount of ISVD construct F027100187 (5 nM in case of OX40L, […] in case of IL-13 and 30 nM in case of HSA and cyno SA) were mixed to allow interaction and incubated for either 24 or 48 hours (in case of OX40L and IL-13) or 2 hours (in case of serum albumin) to reach equilibrium.
Biotinylated human OX40L/IL-13/serum albumin was captured in the microstructures of a Gyrolab Bioaffy 1000 CD, which contains columns of beads and was used as a molecular probe to capture free F027100187 from the equilibrated solution. The mixture of OX40L/IL13/serum albumin and F027100187 (containing free OX40UIL-13/serum albumin, free F027100187 and OX40L/IL13/serum albumin—F027100187 complexes) was allowed to flow through the beads, and a small percentage of free F027100187 was captured, which is proportional to the free ISVD construct concentration. A fluorescently labeled anti-ISVD antibody, ABH0086-Alexa647, was then injected to label any captured F027100187 and after rinsing away excess of fluorescent probe, the change in fluorescence was determined. Fitting of the dilution series was done using Gyrolab Analysis software, where KD- and receptor-controlled curves were analyzed to determine the KD value.

In assay [3] the target is T3, human TRAIL (human, UniProt P50591 114-281, limits assumed).
T3 construct: also called hTRAIL
The assay can be described thus: SPR (ProteOn XPR36), cytokine immobilised by amine coupling. The method, then:
(§1) Absence of binding to OX40L and IL-13 related human cytokines was assessed via SPR (Proteon XPR36). As IL-13 related cytokine, IL-4 was assessed. As OX40L related targets, human TRAIL, CD30L, CD40L and RANKL were assessed.
(§2) To this end, the cytokines were immobilized on a ProteOn GLC sensor chip at 25 μg/mL for 600 s using amine coupling, with 80 seconds injection of EDC/NHS for activation and a 150-seconds injection of 1 M Ethanolamine HCl for deactivation (ProteOn Amine Coupling Kit. cat. 176-2410). Flow rate during activation and deactivation was set to 30 μl/min, and during ligand injection to 25 μl/min. The pH of the 10 mM acetate immobilization buffer was 6.0 for all cytokines, except for RANKL where the pH was 5.0.
(§3) Next, 1 μM of F027100187 was injected for 2 minutes and allowed to dissociate for 600 s at a flow rate of 45 μL/min. As running buffer PBS (pH7.4)+0.005% Tween 20 was used. As positive controls, 100 nM α-hIL-4, α-hTRAIL, α-hCD30L, α-hCD40L Ab and α-hRANKL VHH (Nanobody®, Nb) were injected. Interaction between F027100187 and the positive controls with the immobilized targets was measured by detection of increases in refractory index which occurs as a result of mass changes on the chip upon binding.

Assay [4] has as its target T4, human CD30L (human, UniProt P32971 63-234, limits assumed).
T4 construct: also called hCD30L
T4 sequence (looked up): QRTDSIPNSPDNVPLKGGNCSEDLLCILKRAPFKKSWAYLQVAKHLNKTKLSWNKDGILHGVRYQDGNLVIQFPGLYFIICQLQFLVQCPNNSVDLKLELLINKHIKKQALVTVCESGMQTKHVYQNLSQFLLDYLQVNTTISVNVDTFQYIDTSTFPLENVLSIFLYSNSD
The description is as above. The method, then: as §1, §2, §3

The target in assay [5] is T5, human IL-4 (human, UniProt P05112 25-153).
T5 construct: also called hIL-4
T5 sequence (looked up): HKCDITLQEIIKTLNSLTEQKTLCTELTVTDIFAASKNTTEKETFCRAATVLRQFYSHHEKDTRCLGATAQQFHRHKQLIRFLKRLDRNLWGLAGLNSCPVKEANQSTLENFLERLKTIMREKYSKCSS
The description is as above. How it is done: as §1, §2, §3

Assay [6] has as its target T6, human CD40L (human, UniProt P29965 113-261, limits assumed).
T6 construct: also called hCD40L
T6 sequence (looked up): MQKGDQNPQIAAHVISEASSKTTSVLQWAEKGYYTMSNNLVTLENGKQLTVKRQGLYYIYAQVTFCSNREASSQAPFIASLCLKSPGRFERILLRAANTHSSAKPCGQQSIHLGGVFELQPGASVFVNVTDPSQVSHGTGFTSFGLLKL
The assay is described as above. How it is done: as §1, §2, §3

For assay [7], the target named is T7, human RANKL (human, UniProt O14788 140-317, limits assumed).
T7 construct: also called hRANKL
T7 sequence (looked up): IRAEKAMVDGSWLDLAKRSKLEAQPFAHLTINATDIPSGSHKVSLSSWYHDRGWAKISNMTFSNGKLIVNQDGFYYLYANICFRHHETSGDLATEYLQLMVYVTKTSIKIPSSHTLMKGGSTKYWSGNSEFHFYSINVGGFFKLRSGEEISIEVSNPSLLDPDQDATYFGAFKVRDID
The description is as above. How it is done: as §1, §2, §3

T2 sequence (Q864V6 19-132 limits assumed): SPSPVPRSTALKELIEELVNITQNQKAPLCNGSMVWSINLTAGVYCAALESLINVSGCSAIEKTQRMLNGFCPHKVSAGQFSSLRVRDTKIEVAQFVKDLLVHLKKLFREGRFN
T3 sequence (P50591 114-281 limits assumed): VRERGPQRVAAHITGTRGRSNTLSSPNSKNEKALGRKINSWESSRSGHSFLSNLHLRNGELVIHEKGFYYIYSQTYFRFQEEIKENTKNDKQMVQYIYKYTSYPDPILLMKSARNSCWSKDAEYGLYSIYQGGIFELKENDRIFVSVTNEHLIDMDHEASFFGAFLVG

B1: ISVD construct F027100187 (other)
chain: DVQLVESGGGVVQPGGSLRLSCAASRSIGRYDRMGWYRHRPGEPRELVATITGGSSINYGDSVKGRFTISIDNSKNTVYLQMNSLRPEDTALYYCNFNKYQISRDTWGQGTLVTVSSGGGGSGGGSEVQLVESGGGVVQPGGSLRLSCAASGRTFSSYRMGWFRQAPGKEREFVAALSGDGYSTYTANSVKGRFTISRDNSKNTVYLQMNSLRPEDTALYYCAAKLQYVSGWSYDYPYWGQGTLVTVSSGGGGSGGGSEVQLVESGGGVVQPGGSLRLSCAASGFTFRSFGMSWVRQAPGKGPEWVSSISGSGSDTLYADSVKGRFTISRDNSKNTLYLQMNSLRPEDTALYYCTIGGSLSRSSQGTLVTVSSGGGGSGGGSEVQLVESGGGVVQPGGSLRLSCAASGFTFNNYAMKWVRQAPGKGLEWVSSITTGGGSTDYADSVKGRFTISRDNSKNTLYLQMNSLRPEDTALYYCANVPFGYYSEHFSGLSFDYRGQGTLVTVSSA
notes: Tetravalent, trispecific single-chain construct of four VHH (ISVD) domains: one against OX40L, two against IL-13, one against serum albumin; also called F0271000187; F27100187
The molecule B1 gave an EC50 in assay [1] of 36.3 pM. Further, the Kd in assay [2] was determined as 14.1 pM. For the same molecule, the binding result in assay [3], in assay [4], in assay [5], in assay [6] and in assay [7] was “no binding (tested: 1 µM)” throughout.
